{"source": "paper PMC2918618", "about": "“Characterization of the TnsD-attTn7 complex that promotes site-specific insertion of Tn7” (Mobile DNA, 2010)", "binders": {"B1": {"name": "attTn7 wt (+23 to +58) (dsDNA)", "DNA 1": "CCGCGTAACCTGGCAAAATCGGTTACGGTTGAGTAA", "DNA 2": "TTACTCAACCGTAACCGATTTTGCCAGGTTACGCGG"}}, "experiment_in_all_cases": "EMSA; Gel-shift buffer not given (as described in ref. 6); TnsD stored in 500 mM KCl, 50 mM Tris-HCl pH 8.0, 1 mM EDTA, 2 mM DTT, 25% glycerol", "key": {"TnsD P417L": {"biological_target": "T1, TnsD P417L (Escherichia coli (transposon Tn7), UniProt P13991 1-508, P417L)", "T1 sequence": "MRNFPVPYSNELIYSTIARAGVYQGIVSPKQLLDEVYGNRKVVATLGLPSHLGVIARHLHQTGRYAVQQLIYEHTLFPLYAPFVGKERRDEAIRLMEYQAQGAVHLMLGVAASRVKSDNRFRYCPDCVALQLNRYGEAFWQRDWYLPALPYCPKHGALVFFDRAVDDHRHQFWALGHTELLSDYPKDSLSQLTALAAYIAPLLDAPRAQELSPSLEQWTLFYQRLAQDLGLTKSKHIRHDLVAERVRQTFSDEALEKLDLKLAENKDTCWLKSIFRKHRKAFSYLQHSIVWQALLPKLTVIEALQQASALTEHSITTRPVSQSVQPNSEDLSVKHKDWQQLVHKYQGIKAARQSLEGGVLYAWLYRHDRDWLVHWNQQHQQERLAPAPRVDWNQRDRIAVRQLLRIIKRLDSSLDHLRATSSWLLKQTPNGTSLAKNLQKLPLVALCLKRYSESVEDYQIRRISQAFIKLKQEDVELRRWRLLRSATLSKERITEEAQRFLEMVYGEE", "conditions": "protein: recombinant; tags: intein-chitin tag, cleaved with DTT"}, "TnsD M96I": {"biological_target": "T2, TnsD M96I (Escherichia coli (transposon Tn7), UniProt P13991 1-508, M96I)", "T2 sequence": "T1 sequence with M96I, L417P", "conditions": "protein: recombinant; tags: intein-chitin tag, cleaved with DTT"}, "TnsD G109E": {"biological_target": "T3, TnsD G109E (Escherichia coli (transposon Tn7), UniProt P13991 1-508, G109E)", "T3 sequence": "T1 sequence with G109E, L417P", "conditions": "protein: recombinant; tags: intein-chitin tag, cleaved with DTT"}, "TnsD W371Z": {"biological_target": "T4, TnsD W371Z (Escherichia coli (transposon Tn7), UniProt P13991 1-370)", "T4 sequence": "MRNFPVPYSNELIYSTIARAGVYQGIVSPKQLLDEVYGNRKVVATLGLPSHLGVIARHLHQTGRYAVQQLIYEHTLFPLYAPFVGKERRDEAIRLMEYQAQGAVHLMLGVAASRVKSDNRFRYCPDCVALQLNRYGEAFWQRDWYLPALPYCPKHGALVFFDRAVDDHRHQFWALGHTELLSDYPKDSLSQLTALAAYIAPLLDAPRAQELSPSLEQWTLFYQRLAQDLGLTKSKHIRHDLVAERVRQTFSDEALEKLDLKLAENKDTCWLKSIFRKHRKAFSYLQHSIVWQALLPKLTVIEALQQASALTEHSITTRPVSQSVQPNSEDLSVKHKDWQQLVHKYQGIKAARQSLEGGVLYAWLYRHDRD", "conditions": "protein: recombinant"}, "TnsD A497I": {"biological_target": "T5, TnsD A497I (Escherichia coli (transposon Tn7), UniProt P13991 1-508, A497I)", "T5 sequence": "T1 sequence with L417P, A497I", "conditions": "protein: recombinant; tags: intein-chitin tag, cleaved with DTT"}}, "note": "Numbering of substitutions follows the chain as printed.", "data": [{"binder": "B1", "values": [{"measurement": "binding signal", "setting": "TnsD P417L", "value": "0.07 relative to wt"}, {"measurement": "binding signal", "setting": "TnsD M96I", "value": "0.3 relative to wt"}, {"measurement": "binding signal", "setting": "TnsD G109E", "value": "0.05 relative to wt"}, {"measurement": "binding signal", "setting": "TnsD W371Z", "value": "< 0.05 relative to wt"}, {"measurement": "binding signal", "setting": "TnsD A497I", "value": "0.05 relative to wt"}]}]}
